This passage reports Kd, koff and kon results from article PMC3035906 (Cell Death & Disease, 2010).

For this assay, the target named is DR4-Ig (death receptor 4, Ig fusion) (UniProt O00220). The assay is described as follows: SPR.
Chain of DR4-Ig (death receptor 4, Ig fusion) (O00220 24-239): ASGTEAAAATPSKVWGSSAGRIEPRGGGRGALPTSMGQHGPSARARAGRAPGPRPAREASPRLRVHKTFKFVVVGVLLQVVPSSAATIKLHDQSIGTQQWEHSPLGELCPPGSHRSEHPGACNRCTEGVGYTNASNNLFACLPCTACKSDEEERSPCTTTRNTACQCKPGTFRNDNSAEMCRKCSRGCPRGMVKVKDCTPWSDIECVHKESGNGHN

B1: rhTRAIL variant 4C7 (G131R/R149I/S159R/N199R/K201H/S215D) (ligand)
chain: VRERGPQRVAAHITGTRRRSNTLSSPNSKNEKALGIKINSWESSRRGHSFLSNLHLRNGELVIHEKGFYYIYSQTYFRFQEEIKERTHNDKQMVQYIYKYTDYPDPILLMKSARNSCWSKDAEYGLYSIYQGGIFELKENDRIFVSVTNEHLIDMDHEASFFGAFLVG
In general, Kd refers to the equilibrium constant for the complex coming apart. The low end stands for higher affinity, the high end for lower affinity. The term koff denotes a measure of how fast the partners let go of each other. A high value points to fast dissociation. A word on the kon: it is a measure of how fast the partners come together. Turning to B1, the Kd came to 0.021 ± 0.01 nM, the koff came to 5.9e-05 s⁻¹ and the kon came out at 2.81e+06 M⁻¹ s⁻¹.

B2: rhTRAIL variant 4C9 (G131R/R149I/S159R/S215D) (ligand)
chain: VRERGPQRVAAHITGTRRRSNTLSSPNSKNEKALGIKINSWESSRRGHSFLSNLHLRNGELVIHEKGFYYIYSQTYFRFQEEIKENTKNDKQMVQYIYKYTDYPDPILLMKSARNSCWSKDAEYGLYSIYQGGIFELKENDRIFVSVTNEHLIDMDHEASFFGAFLVG
Turning to B2, the Kd came to 0.025 ± 0.02 nM, the koff amounted to 5.8e-05 s⁻¹ and the kon came to 2.35e+06 M⁻¹ s⁻¹.
